{
  "source": "the DeepSol protein solubility set",
  "experiment": "soluble on expression in E. coli; label from the status in PepcDB or PDB records",
  "data": [
    {"sequence": "AHHHHHHGSGRDKKNTALLDIARDIGGDEAVEVVKALEKKGEATDEELAELTGVRVNTVRKILYALYDAKLATFRRVRDDETGWYYYYWRIDTKRLPEVIRTRKLQELEKLKQMLQEETSETYYHCGTPGHPKLTFDEAFEYGFQCPICGEILYEYDNSKIIEELKKRIEELEIELGLRSPPKEEKPKKATRRKKSRSGKKKK", "values": [
      {"measurement": "soluble on expression in E. coli", "result": "not soluble"}
    ]},
    {"sequence": "GMNLTELMERIPHLREILNIVREAFKDYDDPAHDISHTFRVMENASEIASREKCDLQKAIIAALLHDIKRPHEALTGVDHAESGAEYASGLLPTMGFDISFVAEVSKAIRSHRYSGGLTPTSLTGKILQDADRLDAIGAVAIARVFSYSGKTGTPLHSLQFSPRSSYSGNSRSSINHFHEKILKIRPETFWTETARKMAEDRYSFVVEFVQRFLAEWGQI", "values": [
      {"measurement": "soluble on expression in E. coli", "result": "soluble"}
    ]},
    {"sequence": "MSDPRYQIDVSVVTRYLKEQSDPENSRFAFAYTITVQNNGSLSAKLLSRHWLITNGDGEVEEVRGAGVVGQQPNIDPGQSHTYSSGAVISTRVGTMQGSYQMFAEDGKRFDAEIAPFRLAVPGALHLEHHHHHH", "values": [
      {"measurement": "soluble on expression in E. coli", "result": "soluble"}
    ]},
    {"sequence": "KHLPEPFRIRVIEPVKRTTRAYREEAIIKSGMNPFLLDSEDVFIDLLTDSGTGAVTQSMQAAMMRGDEAFSGSRSYYALAESVKNIFGYQYTIPTHQGRGAEQIYIPVLIKKREQEKGLDRSKMVAFSNYFFDTTQGHSQINGCTVRNVYIKEAFDTGVRYDFKGNFDLEGLERGIEEVGPNNVPYIVATITSNSAGGQPVSLANLKAMYSIAKKYDIPVVMDSARFAENAYFIKQREAEYKDWTIEQITRETYKYADMLAMSAKKDAMVPMGGLLCMKDDSFFDVYTECRTLCVVQEGFPTYGGLEGGAMERLAVGLYDGMNLDWLAYRIAQVQYLVDGLEEIGVVCQQAGGHAAFVDAGKLLPHIPADQFPAQALACELYKVAGIRAVEIGSFLLGRDPKTGKQLPCPAELLRLTIPRATYTQTHMDFIIEAFKHVKENAANIKGLTFTYEPKVLRHFTAKLKEV", "values": [
      {"measurement": "soluble on expression in E. coli", "result": "soluble"}
    ]},
    {"sequence": "MPIVMARDLEETASSSEDEEVISQEDHPCIMWTGGCRRIPVLVFHADAILTKDNNIRVIGERYHLSYKIVRTDSRLVRSILTAHGFHEVHPSSTDYNLMWTGSHLKPFLLRTLSEAQKVNHFPRSYELTRKDRLYKNIIRMQHTHGFKAFHILPQTFLLPAEYAEFCNSYSKDRGPWIVKPVASSRGRGVYLINNPNQISLEDNILVSRYINNPLLIDDFKFDMRLYVLVTSYDPLVIYLYEEGLARKCNWKMGNTMDKRRLPIYVQVL", "values": [
      {"measurement": "soluble on expression in E. coli", "result": "not soluble"}
    ]},
    {"sequence": "MMEEYVVIGKVLDTFGLEGELKVRPYAPPEVFENLEKVYLKRKGGDWVPFEVEWVDFIDDKVIIKFKGYDSIDEVEQFKGAKLFLPKEELPELGEEEYYAYELVGMEVETDKGKKLGKVERVQDMGPYDALVLDKENLLVPFVSDIVLKVDKENKKIIVKEELLPVLEHHHHHH", "values": [
      {"measurement": "soluble on expression in E. coli", "result": "soluble"}
    ]},
    {"sequence": "MGSDKIHHHHHHMDMNQGGLISLSPHAQVLLRPEGIQFGLDSANAGIFAAPESLIVAIVQVLRGFWQPIAKTTAIEQLTEAGLQPVAARGLIDDLLHHRVLSIVERNLTVAVGGFGPLVAPIKAVLGCAGISVVQAHTIQRCMTLESLLSREVPLIWINSTPSFSHIAQELVEVKTMIPVGLMDNHAIIGPVRIDGRGPCGLCTDLYRSDADPQWPALLKNATAPLTAPAALTYATAARVTRLVEQLSEPRQRVTVTAGLVIRVSSDGELSSEIMSPHSRCPLCWSSRWDCDPLTGTEQAFLADLGQNVLL", "values": [
      {"measurement": "soluble on expression in E. coli", "result": "not soluble"}
    ]},
    {"sequence": "MLSDIQHDQFGFIKGCIISVIWLSLSRTLNRDQLNLDRFEFWQPTSQLLVLDVCLFDAFALEHHHHHH", "values": [
      {"measurement": "soluble on expression in E. coli", "result": "not soluble"}
    ]},
    {"sequence": "GSEVAIKMVVVGNGAVGKSSMIQRYCKGIFTKDYKKTIGVDFLERQIQVNDEDVRLMLWDTAGQEEFDAITKAYYRGAQACVLVFSTTDRESFEAISSWREKVVAEVGDIPTALVQNKIDLLDDSCIKNEEAEGLAKRLKLRFYRTSVKEDLNVSEVFKYLAEKHLQK", "values": [
      {"measurement": "soluble on expression in E. coli", "result": "soluble"}
    ]},
    {"sequence": "MNNQKQQKPTLSGQRFKTRKRDEKERFDPTQFQDCIIQGLTETGTDLEAVAKFLDASGAKLDYRRYAETLFDILVAGGMLAPGGTLADDMMRTDVCVFAAQEDLETMQAFAQVFNKLIRRYKYLEKGFEDEVKKLLLFLKGFSESERNKLAMLTGVLLANGTLNASILNSLYNENLVKEGVSAAFAVKLFKSWINEKDINAVAASLRKVSMDNRLMELFPANKQSVEHFTKYFTEAGLKELSEYVRNQQTIGARKELQKELQEQMSRGDPFKDIILYVKEEMKKNNIPEPVVIGIVWSSVMSTVEWNKKEELVAEQAIKHLKQYSPLLAAFTTQGQSELTLLLKIQEYCYDNIHFMKAFQKIVVLFYKAEVLSEEPILKWYKDAHVAKGKSVFLEQMKKFVEWLKNAEEESESEAEEGD", "values": [
      {"measurement": "soluble on expression in E. coli", "result": "soluble"}
    ]},
    {"sequence": "MSLRKPPLHMLPLGGCGEIGMNFTLYGHQDHWIVVDCGMMIRQDLPQAPLQVPNVDMLASQNIVPRAIVVTHGHEDHIGAIAWLWPRWQCPVHATPLAAGLLRLRFAEQQLPTSAIQVITPGDAMESGPFDIRFLPLPHSIPESCALLLTTPQHRILHTGDWKLDPEPLIGKPASPQRFQALAPVDLVVGDSTNAPVPGHSRSEGEVARALETTIGACPGRVIVSCFASNLARILALGRAAHACGRRVSLMGRSMERMVGVARGLGYLEDFPPLVPVRDLGYLPPEEVLVIATGSQGEPRAALSRLAQGRHADFELHPGDSVIFSAKAIPGNELLIERLQAGLKRAKVTIFDERSHPELHASGHPAQAELRRFYEWVKPRRLLPVHGEQQHQQAHRALAESLGIEVPWIPRNGDMLRLDAEGLHCESRHSLAPHIVTQNRIHPLEGLRAPEASSMHRRSGILSLTLPVVRQSTGWVRIGRLLWDTSHDLPLDDVALADWVDEQLAGHDADTIVTLRQRLHGPLMHWLGDHLRHLPDVHLHIMAAEGDTVYDAEGHHHHHH", "values": [
      {"measurement": "soluble on expression in E. coli", "result": "soluble"}
    ]},
    {"sequence": "MSLFLNRLSLPKDYFIDTFLYYSDQDIAQISSYLPESNVSANVPGFKKNFVLKVFDHKIKPGETLSHVAARYQITSETLISFNEIKDVRNIKPNSVIKVPNMKGIVYIVKKNDSISSIASAYNVPKVDILDSNNLDNEVLFLGQKLFIPGGRLPKDFLKEVLGETFIYPVQGVITSGYGYRPDPFTGVISFHNGIDIANLANTPIKASREGVVVTAGFNAGGYGKYIVISHSNGFQTLYAHLNSFAVKVGKKVSRGAVIGYMGSTGYSTGNHLHFTIFKNGKTENPMKYEGHHHHHH", "values": [
      {"measurement": "soluble on expression in E. coli", "result": "not soluble"}
    ]},
    {"sequence": "MKNTFVYQAEKPVIKLLQITDPHLFKDESAELLGVNTQASFAQVLKEIQQENNEFDVILATGDLVQDSSDEGYIRFVEMMKPFNKPVFWIPGNHDFQPKMAEFLNQPPMNAAKHLLLGEHWQALLLDSQVYGVPHGQLSQHQLDLLKETLGKNPERYTLVVLHHHLLPTNSAWLDQHNLRNSHELAEVLAPFTNVKAILYGHIHQEVNSEWNGYQVMATPATCIQFKPDCQYFSLDTLQPGWREIELHSDGSIRTEVKRIQQAEFFPNMQEEGY", "values": [
      {"measurement": "soluble on expression in E. coli", "result": "not soluble"}
    ]},
    {"sequence": "MNIIWQLGTCNIRQVLAEVPEPKPPYTTLASVFKNLERKHYIKPFREGKTYHYRICISREEYATRTMHRMVDNYFTGSYKHLVQFFAAGSDISVKDLREVIDMIEKGEESE", "values": [
      {"measurement": "soluble on expression in E. coli", "result": "not soluble"}
    ]},
    {"sequence": "MGSDKIHHHHHHLTLSIEHLTGGYTQTPVIKDINFEVKNGELLGLIGLNGAGKSTTINHVIGLMRPMKGKIILDEIDLEQNPTQYKTKLAYIPELPILYDELTLKEHIELTIKAYEMNSEKAWQQAHKLLKTFRLENKLDWFPANFSKGMRQKVMIVCAFITDAELFVVDEPFLGLDPLAIDDLLKVINEKKQQGASILMSTHVLDTAEKYCDRFALLNEGELKAVGTLADFQKQFNLPNSSLNDIYLTIAKGERDE", "values": [
      {"measurement": "soluble on expression in E. coli", "result": "not soluble"}
    ]},
    {"sequence": "MGSDKIHHHHHHMTQLKTLPIYDPTLFEGAAEVYAQYRTKYPPAVFDKLTEIFNLNGQGRLLDLGTGPGLIAIPLSTKFQEVVAIDPDPEMLKEAQRQAATAGANNITWLEQGAELINPSLGVFKLATIGRAFHWMERQLVLERLYELLADDGAIALLNTGDDPWKSPLPWKQAAIGVVKKWLGEERRTGQRGQGIRKPVDPPHEVVIANSKFARQEVHEVTFEKSWTVSSYLGYLYTTAFSLKIFYGDKAEEFEADIKDALLAVEPSGHFTEELKATIQVVWKH", "values": [
      {"measurement": "soluble on expression in E. coli", "result": "not soluble"}
    ]},
    {"sequence": "YWASSQLTQLFLSTDLESLEPTCLSKDTIYQWKVVQTFGDRLRLRQRVLATAIVLLRRYMLKKNEEKGFSLEALVATCIYLSCKVEECPVHIRTICNEANDLWSLKVKLSRSNISEIEFEIISVLDAFLIVHHPYTSLEQAFHDGIINQKQLEFAWSIVNDSYASSLCLMAHPHQLAYAALLISCCNDENTIPKLLDLIKSTDAFKVILCVQRIISIYYFEDIEAAALEHHHHHH", "values": [
      {"measurement": "soluble on expression in E. coli", "result": "soluble"}
    ]}
  ]
}
